Substitutions are numbered along the chain they refer to. In names and notes the source's numbering stands. Where two headings read alike, the source gives them in different places. Positions of bridges follow the written chain, without caps; N, C: chain ends. Non-standard residues stand in square brackets, D forms with d. Primed or numbered codes have the meaning given here. No end group written: not given here. FAM″ = 5(6)-carboxyfluorescein label; pS = N[C@@H](COP(=O)(O)O)C(=O)O; FAM = 5(6)-carboxyfluorescein; S5 = C=CCCC[C@](C)(N)C(=O)O; PEG3′ = PEG3 linker
B1: clathrin heavy chain minimal ankle region (CHC^ankle, aa 358–574) (domain or fragment)
chain: AGAEELFARKFNALFAQGNYSEAAKVAANAPKGILRTPDTIRRFQSVPAQPGQTSPLLQYFGILLDQGQLNKYESLELCRPVLQQGRKQLLEKWLKEDKLECSEELGDLVKSVDPTLALSVYLRANVPNKVIQCFAETGQVQKIVLYAKKVGYTPDWIFLLRNVMRISPDQGQQFAQMLVQDEEPLADITQIVDVFMEYNLIQQCTAFLLDALKNNR
B2: K507A-CHC^ankle (domain or fragment)
chain: B1 chain with K150A
B3: biotinylated Avi-tagged ankle region of clathrin (aa 358–574) (domain or fragment)
chain: B1 chain
modifications: biotin
B4: SP4D (peptide)
chain: KESALRKXDLYXKFDPLLRDS
modifications: N-terminal FAM; X557 and X561 are (S)-2-(4-pentenyl)alanine joined as i,i+4 hydrocarbon staple; staple position and limits inferred from Opt SP TACC3 (KESALRK*ELL*…), exact sequence only in Fig 3A
B5: Opt SP TACC3 (designed binder)
chain: {FAM}-KESALRKLELLLEFDPLFRDS
modifications: staple (positions not given here); not fully specified (residues 8, 12, bridges); also: (S)-2-(4-pentenyl)alanine at 557 and 561 not placed in the given letters

Tests used:
[1] = molecular target: B1; assay: FP
K507A-CHC^ankle [2] = molecular target: B2; assay: FP
Opt P5 (S558D) = assay: FP
Opt P9 (S558E) = assay: FP
Opt P8 (S558D) = assay: FP
Opt P2 (pS558) = assay: FP
Opt P8 (pS558) = assay: FP
Opt P9 (pS558) = assay: FP
Opt P5 (pS558) = assay: FP
Opt P6 (S558E) = assay: FP
Opt P9 (S558D) = assay: FP
Opt P5 (S558E) = assay: FP
Opt P7 (S558E) = assay: FP
Opt P6 (pS558) = assay: FP
Opt P6 (S558D) = assay: FP
Opt P4 (pS558) = assay: FP
Opt P3 (S558D) = assay: FP
Opt P1 (S558E) = assay: FP
Opt P3 (pS558) = assay: FP
Opt P1 (pS558) = assay: FP
Opt P1 (S558D) = assay: FP
Opt P4 (S558D) = assay: FP
Opt P8 (S558E) = assay: FP
Opt P3 (S558E) = assay: FP
Opt P7 (S558D) = assay: FP
Opt P4 (S558E) = assay: FP
Opt P7 (pS558) = assay: FP
Opt P2 (S558E) = assay: FP
Opt P2 (S558D) = assay: FP
SP6D = assay: FP
P1 = assay: FP
SP2 = assay: FP
P2 = assay: FP
SP1 = assay: FP
SP4E [3] = molecular target: T1, SP4E (human, UniProt Q9Y6A5, two (S)-2-(4-pentenyl)alanine, stapled; FAM on the N-terminus); assay: FP
SP6E = assay: FP
SP3D = assay: FP
SP3E = assay: FP
SP4E [4] = molecular target: T1, SP4E; assay: SPR
[5] = molecular target: B1; assay: FP
[6] = molecular target: B3; assay: SPR
[7] = molecular target: B3; assay: SPR
K507A-CHC^ankle [8] = molecular target: B2; assay: FP; remark: listed apart in the source

Sequence of K507A-CHC^ankle (Q00610 358-574 K507A): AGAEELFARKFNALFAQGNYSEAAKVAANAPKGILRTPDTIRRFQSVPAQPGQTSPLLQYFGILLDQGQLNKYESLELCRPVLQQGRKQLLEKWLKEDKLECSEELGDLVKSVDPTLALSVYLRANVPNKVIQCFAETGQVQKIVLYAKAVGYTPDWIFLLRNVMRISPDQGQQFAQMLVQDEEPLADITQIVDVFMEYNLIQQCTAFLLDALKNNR

With {FAM}-KESALRKQDLYLKFDPLLR [WT TACC3 S558D] the Kd [1] was 339 µM.

Binder {FAM″}-KESALRK[S5]ELL[S5]EADPAFRDS-NH2 (staple 8-12) [negative control SP TACC3 (F563A & L566A)] has a Kd (K507A-CHC^ankle [2]) of 280 µM.

Binder B1 has a Kd (Opt P5 (S558D)) of 16 µM, a Kd (Opt P9 (S558E)) of 23.4 µM and a Kd (Opt P8 (S558D)) of 30 µM. The Kd (Opt P2 (pS558)) was 1200 nM, the Kd (Opt P8 (pS558)) was 15 µM and the Kd (Opt P9 (pS558)) was 9.5 µM. For the same binder, the Kd (Opt P5 (pS558)) was 5 µM, the Kd (Opt P6 (S558E)) was 2800 nM and the Kd (Opt P9 (S558D)) was 24.5 µM. The Kd (Opt P5 (S558E)) was 6.7 µM, the Kd (Opt P7 (S558E)) was 10.1 µM and the Kd (Opt P6 (pS558)) was 1800 nM. For the same binder, the Kd (Opt P6 (S558D)) was 5.5 µM, the Kd (Opt P4 (pS558)) was 7.1 µM and the Kd (Opt P3 (S558D)) was 22.8 µM. For the same binder, the Kd (Opt P1 (S558E)) was 2400 nM, the Kd (Opt P3 (pS558)) was 3.3 µM and the Kd (Opt P1 (pS558)) was 1700 nM. The Kd (Opt P1 (S558D)) was 6.3 µM, the Kd (Opt P4 (S558D)) was 6.5 µM and the Kd (Opt P8 (S558E)) was 13 µM. It also gave a Kd (Opt P3 (S558E)) of 13 µM, a Kd (Opt P7 (S558D)) of 16.2 µM and a Kd (Opt P4 (S558E)) of 6.1 µM. For the same binder, the Kd (Opt P7 (pS558)) was 4.4 µM, the Kd (Opt P2 (S558E)) was 1300 nM and the Kd (Opt P2 (S558D)) was 3.3 µM. It also gave a Kd (SP6D) of 74 µM, a Kd (P1) of 105 µM and a Kd (SP2) of 145 µM. For the same binder, the Kd (P2) was 160 µM, the Kd (SP1) was 22 µM and the Kd (SP4E [3]) was 34 µM. The Kd (SP6E) was 54 µM, the Kd (SP3D) was 92 µM and the Kd (SP3E) was 78 µM.

For B2, the Kd (SP6D) was 44 µM, the Kd (P1) was 37 µM and the Kd (SP2) was 23 µM. For the same binder, the Kd (P2) was 19 µM, the Kd (SP4E [3]) was 3.7 µM and the Kd (SP6E) was 53 µM. For the same binder, the Kd (SP3D) was 23 µM and the Kd (SP3E) was 22 µM.

B3 showed a Kd (SP4E [4]) of 2800 nM and a koff (SP4E [4]) of 0.46 s⁻¹.

In the case of B4, the Kd [5] is reported as 39 µM and the Kd (K507A-CHC^ankle [2]) is reported as 5.2 µM.

B5 gave a Kd [6] of 0.03 µM, a koff [7] of 0.04 s⁻¹ and a Kd [5] of 0.136 µM. It also gave a Kd (K507A-CHC^ankle [2]) of 0.19 µM.

{FAM-PEG3′}-KESALRK[S5]ELL[S5]EFDPLFRDS (designed binder, staple 8-12) [Opt PEG3 SP TACC3] gave a Kd [5] of 0.12 µM and a Kd (K507A-CHC^ankle [2]) of 0.178 µM.

{FAM″}-KESALRKQELY[S5]KFD[S5]LLRDS-NH2 (staple 12-16) [SP5E] gave a Kd [5] of 234 µM and a Kd (K507A-CHC^ankle [2]) of 146 µM.

Binder {FAM″}-KESALRKQDLY[S5]KFD[S5]LLRDS-NH2 (staple 12-16) [SP5D] has a Kd [5] of 361 µM and a Kd (K507A-CHC^ankle [2]) of 152 µM.

{FAM}-FKESALRKQ[pS]LYLKFDPLLRDS [FAM-pTACC3 CID peptide (aa 549–570), phosphorylated at S558] gave a Kd [6] of 23 µM, a Kd (K507A-CHC^ankle [8]) of 22 µM and a koff [7] of 1.4 s⁻¹.

Source: paper PMC12204359 (2025)
